Reference: the supplement of paper PMC10126150
± gives the standard deviation of the averaged measurements.
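Also: ATP exposure 15 min at 22 °C before imaging.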

These sequences were tested on ATP (assay: switch fluorescence ratio, 500 uM ATP over buffer (Cy3 cluster intensity, sum of 5 cycles each) (fold (ratio)); higher = stronger signal-on switching upon ATP binding; sequences stand for … in TCGTCGGCAGCGTCAGATGTGTATAAGAGACAGTTTTTTTTTTTTTTTTTTTTTTTTT…TC). Settings: aptamer strand: ATP DNA aptamer (quencher-CACCTGGGGGAGTATTGCGGAGGAAGG + anchor), 100 nM annealed; ATP concentration: 500 uM.
How it was run: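 Imaging in selection buffer was followed by imaging after 15 min with 500 uM ATP at 22 °C, for Cy3-labelled switching-strand clusters annealed to 100 nM quencher-labelled ATP aptamer on a modified Illumina MiSeq flow-cell. Five of these buffer/ATP cycles ran, separated by NaOH stripping and re-annealing. The fluorescence ratio per cluster is summed target-cycle over summed buffer-cycle Cy3 intensity, averaged per switch-domain sequence; clusters outside 100-1000 RFU were removed.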
With TTTTAGAATG the switch fluorescence ratio was 1 ± 0.061.
With AAGTTCCTTC the switch fluorescence ratio was 1.05 ± 0.036.
With AAAGGGTATC the switch fluorescence ratio was 0.9956 ± 0.0092.
TGCCGGGTTC gave a switch fluorescence ratio of 0.979 ± 0.03.
AGGCTTTCCT gave a switch fluorescence ratio of 1.05 ± 0.04.
GAGTGAGTAT gave a switch fluorescence ratio of 0.9731 ± 0.0071.
In the case of AGGTTGTATG, the switch fluorescence ratio is reported as 0.97 ± 0.039.
Work on ATGCGGGGTC yielded a switch fluorescence ratio of 1.03 ± 0.053.
GGAGTTGGGT was tested, and the switch fluorescence ratio was 0.984 ± 0.08.
AGGATGCAGA was tested, and the switch fluorescence ratio was 1.01 ± 0.024.
In the case of CGTCTTGCCC, the switch fluorescence ratio is reported as 0.9853 ± 0.0052.
In the case of GTGTTGTTGC, the switch fluorescence ratio is reported as 0.981 ± 0.0012.
Sequence TTGACCGGGA has a switch fluorescence ratio of 1.14 ± 0.27.
With CGTTGTTGAA the switch fluorescence ratio was 0.968 ± 0.036.
For TTTTGGTTCC, the switch fluorescence ratio was 1.01 ± 0.016.
CGCGCGGAAC showed a switch fluorescence ratio of 0.98 ± 0.019.
Sequence AGGGGGCGTC has a switch fluorescence ratio of 1.022 ± 0.0093.
In the case of TATATGGGAT, the switch fluorescence ratio is reported as 1.006 ± 0.0035.
TTTTCGGGGT showed a switch fluorescence ratio of 0.986 ± 0.025.
ACAAGGTGAT gave a switch fluorescence ratio of 1.15 ± 0.024.
GGGGGGGTAG showed a switch fluorescence ratio of 1 ± 0.021.
For TTTTTCGACG, the switch fluorescence ratio was 1.1 ± 0.21.
Work on GTGTTAGAT yielded a switch fluorescence ratio of 0.964 ± 0.043.
Work on AGGTGCTTAC yielded a switch fluorescence ratio of 1.04 ± 0.037.
For AGAGAACCCT, the switch fluorescence ratio was 1.08 ± 0.048.
Work on CAATTGCAGG yielded a switch fluorescence ratio of 1.01 ± 0.014.
TTGGGTCGAT showed a switch fluorescence ratio of 0.985 ± 0.024.
GGGTATGATG showed a switch fluorescence ratio of 1.01 ± 0.044.
CTTTTATGGG showed a switch fluorescence ratio of 0.993 ± 0.023.
Work on GAGAGGGGCT yielded a switch fluorescence ratio of 1.01 ± 0.02.
Work on CTTTGTATTC yielded a switch fluorescence ratio of 1.04 ± 0.022.
Sequence TTATCATTC has a switch fluorescence ratio of 1.01 ± 0.019.
In the case of ATGGTGGGGC, the switch fluorescence ratio is reported as 0.979 ± 0.047.
Sequence ATCCCCGGAG has a switch fluorescence ratio of 1.33 ± 0.12.
With ATAGCTCTCG the switch fluorescence ratio was 1.01 ± 0.037.
In the case of TTTAGAATGT, the switch fluorescence ratio is reported as 0.994 ± 0.019.
CTACAGGGGG gave a switch fluorescence ratio of 1.08 ± 0.018.
ATGAATGTAT gave a switch fluorescence ratio of 0.9855 ± 0.0062.
Work on TCGTTTTATT yielded a switch fluorescence ratio of 0.9925 ± 0.0076.
TGCCATGTGT gave a switch fluorescence ratio of 1.032 ± 0.0036.
For GGCCAACGTA, the switch fluorescence ratio was 0.997 ± 0.021.
Sequence TGGGGACGGA has a switch fluorescence ratio of 1.02 ± 0.054.
For TTTTTGGAGC, the switch fluorescence ratio was 1.01 ± 0.016.
GTTGGGCTAT was tested, and the switch fluorescence ratio was 0.9916 ± 0.0024.
Sequence TCGAAGAAGT has a switch fluorescence ratio of 0.997 ± 0.016.
CCTAATCAAC showed a switch fluorescence ratio of 1.13 ± 0.034.
GATGTTTTTC gave a switch fluorescence ratio of 0.97003 ± 0.00087.
TTTAACGATC showed a switch fluorescence ratio of 1.01 ± 0.035.
Sequence TGCTGTTAAT has a switch fluorescence ratio of 0.9829 ± 0.0089.
Work on TGATGCTTT yielded a switch fluorescence ratio of 1.01 ± 0.077.
For ATCACGCGTA, the switch fluorescence ratio was 1.02 ± 0.037.
Work on GCGTTAACGC yielded a switch fluorescence ratio of 0.9731 ± 0.0096.
With GCGGAAGGG the switch fluorescence ratio was 0.996 ± 0.0087.
Work on TATCAACCTT yielded a switch fluorescence ratio of 1.25 ± 0.34.
For ATTTTGGTAT, the switch fluorescence ratio was 1.01 ± 0.027.
Sequence TTTTTCTCTT has a switch fluorescence ratio of 0.996 ± 0.021.
TGTTTTAGG showed a switch fluorescence ratio of 0.998 ± 0.048.
GCCCTGATGC showed a switch fluorescence ratio of 1.01 ± 0.051.
ATAATTATCG gave a switch fluorescence ratio of 0.972 ± 0.046.
TTTGATTGTT was tested, and the switch fluorescence ratio was 0.97 ± 0.043.
Sequence ATCGAAATGG has a switch fluorescence ratio of 1 ± 0.024.
With CATGAGATTG the switch fluorescence ratio was 0.971 ± 0.029.
In the case of AGAGTTGTTT, the switch fluorescence ratio is reported as 0.997 ± 0.015.
With GGAACACACG the switch fluorescence ratio was 1.32 ± 0.039.
In the case of CGACCGGGGG, the switch fluorescence ratio is reported as 1.11 ± 0.094.
TTATCGCGAC showed a switch fluorescence ratio of 1.67 ± 0.82.
With GCGGGTCAAA the switch fluorescence ratio was 0.9883 ± 0.0093.
Sequence GAGGGTTTTT has a switch fluorescence ratio of 1 ± 0.021.
Sequence GAGCAAGAGT has a switch fluorescence ratio of 1.8 ± 0.046.
In the case of AAGTCATTTA, the switch fluorescence ratio is reported as 0.9881 ± 0.0096.
Work on AAAGGTCCGC yielded a switch fluorescence ratio of 1.18 ± 0.051.
Work on GAGACGGGTG yielded a switch fluorescence ratio of 1.01 ± 0.031.
Work on ACGTTTTTGC yielded a switch fluorescence ratio of 1.02 ± 0.044.
TATAGTGGCC was tested, and the switch fluorescence ratio was 0.998 ± 0.022.
Sequence GTTGCAGTTA has a switch fluorescence ratio of 0.9986 ± 0.0029.
Work on GAGTTGAGGA yielded a switch fluorescence ratio of 0.98 ± 0.014.
With ATTTTAATGG the switch fluorescence ratio was 0.9907 ± 0.0036.
In the case of GGTTGAGGTT, the switch fluorescence ratio is reported as 1.04 ± 0.022.
ACGCTAGCCT showed a switch fluorescence ratio of 1.18 ± 0.032.
In the case of GGGTAAATTA, the switch fluorescence ratio is reported as 0.989 ± 0.042.
For GTAGCTTTGG, the switch fluorescence ratio was 1.04 ± 0.027.
For TTTGGGAATA, the switch fluorescence ratio was 1.02 ± 0.02.
Work on CCCAAAATGC yielded a switch fluorescence ratio of 2.87 ± 1.5.
ACGTGGAGGA gave a switch fluorescence ratio of 1.054 ± 0.0031.
Sequence TTTATCACAG has a switch fluorescence ratio of 1.014 ± 0.0041.
TACTTCGAGA showed a switch fluorescence ratio of 1.081 ± 0.0099.
CCGGGGGAAT gave a switch fluorescence ratio of 1.13 ± 0.16.
In the case of TCGATTCAGT, the switch fluorescence ratio is reported as 0.9804 ± 0.0054.
With GGGGTGGCCT the switch fluorescence ratio was 1 ± 0.027.
Sequence TGATTAGATT has a switch fluorescence ratio of 1.01 ± 0.046.
With GGGTGATTCC the switch fluorescence ratio was 1.03 ± 0.014.
TCTATCAGTG showed a switch fluorescence ratio of 1.02 ± 0.018.
Work on GGCGAAAAGG yielded a switch fluorescence ratio of 0.993 ± 0.047.
AATCTTTGTG showed a switch fluorescence ratio of 0.976 ± 0.033.
For GGTAAGTTTG, the switch fluorescence ratio was 1.03 ± 0.028.
Work on TTGCGTTAGG yielded a switch fluorescence ratio of 1.04 ± 0.012.
GGAGAGGGCA was tested, and the switch fluorescence ratio was 1.016 ± 0.0077.
ACTTCATGGG was tested, and the switch fluorescence ratio was 1.01 ± 0.029.
Work on GTTTTAGAGG yielded a switch fluorescence ratio of 1.01 ± 0.015.
In the case of CCGTTGATGT, the switch fluorescence ratio is reported as 1.014 ± 0.002.
